Experimental data: paper PMC8833184

What was measured:
[1] = biological target: T1, SF3A1-UBL G790I (human, UniProt Q15459 704-793, G790I); assay: SPR
T1 sequence: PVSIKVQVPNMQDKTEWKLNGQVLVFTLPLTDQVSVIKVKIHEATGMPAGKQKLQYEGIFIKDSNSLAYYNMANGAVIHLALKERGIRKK

[2] = biological target: T2, SF3A1-UBL WT (human, UniProt Q15459 704-793); assay: SPR
T2 sequence: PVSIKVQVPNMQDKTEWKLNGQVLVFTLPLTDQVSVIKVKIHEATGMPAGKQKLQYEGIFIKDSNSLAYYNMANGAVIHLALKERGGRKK

[3] = biological target: T3, SF3A1-UBL K754A (human, UniProt Q15459 704-793, K754A); assay: SPR
T3 sequence: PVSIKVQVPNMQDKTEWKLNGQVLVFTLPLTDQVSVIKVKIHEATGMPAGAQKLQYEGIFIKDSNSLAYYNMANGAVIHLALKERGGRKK

[4] = biological target: T4, SF3A1-UBL K765A (human, UniProt Q15459 704-793, K765A); assay: SPR
T4 sequence: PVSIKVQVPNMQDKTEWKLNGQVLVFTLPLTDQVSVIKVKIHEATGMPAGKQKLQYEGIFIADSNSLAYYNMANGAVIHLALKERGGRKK

[5] = biological target: T5, SF3A1-UBL R791A (human, UniProt Q15459 704-793, R791A); assay: SPR
T5 sequence: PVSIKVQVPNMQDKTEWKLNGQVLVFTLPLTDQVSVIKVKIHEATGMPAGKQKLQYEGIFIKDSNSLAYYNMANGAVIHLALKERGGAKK

[6] = biological target: T6, SF3A1-UBL K717A (human, UniProt Q15459 704-793, K717A); assay: SPR
T6 sequence: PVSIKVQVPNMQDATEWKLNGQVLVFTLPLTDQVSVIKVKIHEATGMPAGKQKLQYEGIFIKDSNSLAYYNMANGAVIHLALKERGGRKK

[7] = biological target: T7, SF3A1-UBL F763A (human, UniProt Q15459 704-793, F763A); assay: SPR
T7 sequence: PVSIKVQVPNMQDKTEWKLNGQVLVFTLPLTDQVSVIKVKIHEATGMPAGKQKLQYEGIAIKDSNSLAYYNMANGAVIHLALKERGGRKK

[8] = biological target: T8, SF3A1-UBL G789I (human, UniProt Q15459 704-793, G789I); assay: SPR
T8 sequence: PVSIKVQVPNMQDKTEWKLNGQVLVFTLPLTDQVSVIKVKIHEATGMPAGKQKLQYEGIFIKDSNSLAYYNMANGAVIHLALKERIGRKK

[9] = biological target: T2, SF3A1-UBL WT; assay: NMR

Binder	Kd [1] [µM]	Kd [2] [µM]	Kd [3] [µM]	Kd [4] [µM]	Kd [5] [µM]	Kd [6] [µM]	Kd [7] [µM]	Kd [8] [µM]	binding result [9]
GGGGACUGCGUUCGCGCUUUCCCC (structured_RNA) [Biotin-U1-SL4-WT]	14.1 ± 3.12	0.332 ± 0.03	16.7 ± 4.38	7.89 ± 0.71	5.97 ± 0.5	1.59 ± 0.27	2.76 ± 0.3	41.9 ± 5.7	
GGGACUGCGUUCGCGCUUUCCC (structured_RNA) [22 nt U1-SL4]									binds
